Laboratory results as given in patent US20190309035A1, “PEPTIDE OR COLLECTION OF PEPTIDES DERIVED FROM AMYLOID PRECURSOR PROTEIN” (Ludwig-Maximilians-Universität München, priority 2015, published 2019).
Entries after “also recorded” stand apart in the source; their conditions may differ.

Legend:
hippocampal LTP = assay: Long-term potentiation (LTP) recordings in acute hippocampal slices (fEPSP at the CA3-CA1 synapse); assay type: cell-based, mouse; conditions: for fEPSP baseline responses after incubation with SEC fractions: 1/15 dilution, 15 min bath application before LTP induction
Method: a) Aη-α and Aη-β peptides were expressed in CHO cells and collected in OPTIMEM medium. […] Higher molecular weight bands are most likely due to posttranslational modification by glycosylation. b-e) SEC fractions enriched for Aη were diluted (1:15) in ACSF for the treatment of hippocampal slices and LTP measurements. Aη-α, Aη-β and control SEC fractions (obtained from CHO cells transfected with the empty vector) were perfused over mouse hippocampal slices for 15 min after obtaining a stable baseline of a fEPSP at the CA3-CA1 synapse.
OPTIMEM was used to collect CHO cell supernatants. SEC was performed with concentrated CHO supernatants using a FPLC (ÄKTApurifier) equipped with a Superdex75 column (GE Healthcare). 1 ml samples were collected with a mobile phase flow rate set at 0.5 ml/min in standard ACSF. Acute hippocampal slices were prepared from Swiss mice (PND20-30) and kept in ACSF^42. Extracellular field excitatory post-synaptic potentials (fEPSPs) were obtained from CA1 pyramidal neurons. After 15 minutes of bath application of SEC fractions^43, LTP was induced by high frequency stimulation (2 pulses of 100 Hz for 1 second with a 20 second inter-pulse interval). LTP was recorded for 60 minutes and statistical analysis was performed on the last 15 minutes of recording compared to baseline fEPSP values.
Transverse hippocampal slices ([…]) were prepared from postnatal day 20-30 Swiss mice following standard procedures^56. Slices were cut in ice-cold oxygenated (95% O2/5% CO2) solution containing 206 mM sucrose, 2.8 mM KCl, 1.25 mM NaH2PO4, 2 mM MgSO4, 1 mM MgCl2, 1 mM CaCl2, 26 mM NaHCO3, 0.4 mM sodium ascorbate, 10 mM glucose (pH 7.4). For recovery (1 h), slices were incubated at 27° C. in oxygenated standard artificial cerebrospinal fluid (ACSF) containing: 124 mM NaCl, 2.8 mM KCl, 1.25 mM NaH2PO4, 2 mM MgSO4, 3.6 mM CaCl2, 26 mM NaHCO3, 0.4 mM sodium ascorbate, 10 mM glucose (pH 7.4)^57. Slices were inspected in a chamber on an upright microscope (Slicescope, Scientifica Ltd) with IR-DIC illumination and were perfused with the oxygenated ACSF at 27±1° C. Field excitatory post-synaptic potentials (fEPSPs) were recorded in the stratum radiatum of the CA1 region using a glass electrode (filled with 1 M NaCl/10 mM HEPES, pH 7.4) and the stimuli (30% of maximal fEPSP) were delivered to the Schaeffer Collateral pathway by a monopolar glass electrode (filled with ACSF). Electrodes were specifically placed just below the surface of the slice to maximize the exposure to circulating peptides. A minimum of 15 minutes stable baseline was first obtained in standard ACSF followed by another 15 minutes of bath application of ACSF containing SEC fractions (CHO, Aη-α or Aη-β; 1/15 dilution, interleaved recordings) using re-circulation with a peristaltic pump at 2.5-3 ml min^−1 while being continuously aerated with 95% oxygen. […] In the continuous presence of the ACSF/SEC solution, LTP was then induced using a high frequency stimulation (HSF) protocol with 2 pulses of 100 Hz for 1 sec with 20 see interval between pulses, and recorded for one hour. Control recordings (no application of SEC fractions) were obtained in an interleaved fashion where ACSF was re-circulated using an identical procedure. For LTP analysis, the first third of the fEPSP slope was calculated in baseline condition (15 minutes prior to induction of LTP and for 60 minutes post-induction). […]

BACE1 = biological target: T1, BACE1 (Cricetulus griseus, UniProt G3IAK4); assay: BACE1 inhibitor treatment of CHO cells expressing human APPV717F, Western blot of supernatants; assay type: cell-based; conditions: 2 μM
T1 construct: endogenous in cells; host or cells: CHO cells overexpressing human APPV717F (CHO / 7PA2)
Method: a) Supernatants of CHO cells expressing human APPV717F without or with BACE1 inhibition (BI; 2 μM Merck IV) were compared to synthetic peptides of Aη-β and Aη-α. Increased Aη-α peptide levels were observed upon BACE1 inhibitor treatment with 2D8 and 2E9 antibodies. The fragment with the lowest molecular weight, co-migrating with the synthetic peptide Aη-β, disappeared upon BACE1 inhibition b) After overnight incubation of DIV 16 primary hippocampal neurons without or with the BACE1 inhibitor (BI; 2 μM Merck IV), supernatants were analyzed by Western blotting. […] Total levels of secreted APP (22C11) were unchanged while sAPP-α levels increased. […] Inhibitor treated mice and vehicle treated controls were sacrificed and analyzed after 5, 8 or 24 h. […]
CHO and 7PA2^44 cells were grown in DMEM/F12 (Thermo Scientific) supplemented with 10% fetal calf serum (FCS, Thermo Scientific) plus Penicillin/Streptomycin and NEAA (Non-essential amino acids, PAA) in a humid incubator with 5% CO2 at a temperature of 37° C. […] The protein concentration of lysates was determined using the Uptima BC Assay Protein Quantitation kit (Interchim).
Proteins were separated under denaturing conditions using discontinuous SDS-PAGE. […] CTFs, Aη and Aβ were detected after transfer on Nitrocellulose membranes (Protran BA85; GE Hlealthcare), while other proteins were blotted on PVDF (Immobilon-P, Merck Millipore). […]

[1] = SEC fractions from conditioned media of CHO cells, diluted 1:15 in ACSF, perfused 15 min before HFS, LTP 45-60 min post-HFS

T1 sequence (G3IAK4 22-501): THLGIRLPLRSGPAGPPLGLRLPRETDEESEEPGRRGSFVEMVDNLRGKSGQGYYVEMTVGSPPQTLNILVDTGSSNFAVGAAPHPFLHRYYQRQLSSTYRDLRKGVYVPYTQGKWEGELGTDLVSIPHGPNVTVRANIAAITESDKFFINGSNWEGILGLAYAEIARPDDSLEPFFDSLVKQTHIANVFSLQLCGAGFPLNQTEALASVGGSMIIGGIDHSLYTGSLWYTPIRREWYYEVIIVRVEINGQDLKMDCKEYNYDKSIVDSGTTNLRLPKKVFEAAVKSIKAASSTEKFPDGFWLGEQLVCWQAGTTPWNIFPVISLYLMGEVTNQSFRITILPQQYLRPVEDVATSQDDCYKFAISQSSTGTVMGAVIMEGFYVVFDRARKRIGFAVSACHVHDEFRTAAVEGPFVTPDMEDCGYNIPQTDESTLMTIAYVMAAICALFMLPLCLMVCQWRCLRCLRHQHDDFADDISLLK

lowest molecular weight fragment co-migrating with synthetic Aη-β (BACE1)	Aη-α peptide levels in supernatant (BACE1; 2D8 and 2E9 antibodies)	Molecule	effect on LTP (hippocampal LTP; 100 nM final in 25 ml re-circulating ACSF, vs interleaved ACSF recordings, 45-60 min post-LTP induction)	fEPSP baseline responses after incubation with SEC fractions (hippocampal LTP)	effect on LTP (hippocampal LTP; [1])
		AβS26C dimers: AβS26C dimers from JPT Peptide Technologies, Germany [reference compound]	reduced		
disappeared	Increased	C[C@@H](NC(=O)c1cc(C(=O)N[C@@H](Cc2ccccc2)[C@H](O)CNC2CC2)cc(N(C)S(C)(=O)=O)c1)c1ccccc1 [Merck IV]			
		Aη-α: Aη-α-peptide (residues 505-612 of P05067-4), 108 aa, expressed in CHO cells and enriched by SEC (protein, listed as Homo sapiens) MISEPRISYGNDALMPSLTETKTTVELLPVNGEFSLDDLQPWHSFGADSVPANTENEVEPVDARPAADRGLTTRPGSGLTNIKTEEISEVKMDAEFRHDSGYEVHHQK		No alterations	significantly inhibited
		Aη-β: Aη-β-peptide (residues 505-596 of P05067-4), 92 aa, expressed in CHO cells and enriched by SEC (protein, listed as Homo sapiens) MISEPRISYGNDALMPSLTETKTTVELLPVNGEFSLDDLQPWHSFGADSVPANTENEVEPVDARPAADRGLTTRPGSGLTNIKTEEISEVKM		No alterations	had no effect; also recorded: did not significantly inhibit
